Measured values reported in PMC3929599.

How the values were obtained:
[1] = biological target: mCherry::WASp (Wiskott-Aldrich Syndrome protein labelled with mCherry at its amino terminus) (Drosophila); assay: FRET or BRET; FLIM-FRET, pixel-resolution 'Interaction' in the CNS of live Drosophila embryos at hours 15 and 21, and Polarplot estimate of the percentage of donor molecules undergoing FRET (hour not told for the percentages)
[2] = biological target: mCherry::WASp (Wiskott-Aldrich Syndrome protein labelled with mCherry at its amino terminus) (Drosophila); assay: FRET or BRET; FLIM-FRET (3D frequency-domain FLIM): mean mEGFP donor fluorescence lifetime in a CNS segment of live whole Drosophila embryos at hour 15; both proteins expressed in all neurons under elav-GAL4; baseline lifetime without FRET 2.56 ns; 10-20 embryos for each experiment
[3] = biological target: WASp labelled with mCherry at its carboxyl terminus (Drosophila); assay: as above
Chain of WASp labelled with mCherry at its carboxyl terminus (Drosophila) (main, as listed by the source): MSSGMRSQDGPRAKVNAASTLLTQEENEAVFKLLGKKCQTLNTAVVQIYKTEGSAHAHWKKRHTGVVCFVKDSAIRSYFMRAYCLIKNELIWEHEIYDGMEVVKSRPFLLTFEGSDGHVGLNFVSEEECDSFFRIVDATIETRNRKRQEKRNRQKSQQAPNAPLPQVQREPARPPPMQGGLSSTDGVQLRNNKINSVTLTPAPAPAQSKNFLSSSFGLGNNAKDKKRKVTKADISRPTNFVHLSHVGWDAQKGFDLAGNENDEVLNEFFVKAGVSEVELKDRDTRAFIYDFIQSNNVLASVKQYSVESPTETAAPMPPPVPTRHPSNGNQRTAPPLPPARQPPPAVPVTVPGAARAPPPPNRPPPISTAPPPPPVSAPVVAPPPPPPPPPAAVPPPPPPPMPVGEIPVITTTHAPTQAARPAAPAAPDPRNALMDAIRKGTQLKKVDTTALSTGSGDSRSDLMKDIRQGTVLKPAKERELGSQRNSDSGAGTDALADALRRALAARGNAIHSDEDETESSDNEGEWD

[4] = biological target: mEGFP-labelled WASp (reciprocal tagging) (Drosophila); assay: FRET or BRET; FLIM-FRET, pixel-resolution 'Interaction' in the CNS of live Drosophila embryos at hours 15 and 21, and Polarplot estimate of the percentage of donor molecules undergoing FRET (hour not told for the percentages)
Chain of mEGFP-labelled WASp (reciprocal tagging) (Drosophila) (main, as listed by the source): as above

Chain of mCherry::WASp (Wiskott-Aldrich Syndrome protein labelled with mCherry at its amino terminus) (Drosophila) (main, as listed by the source): as above

fraction of Cdc42 interacting with WASp [1]	mean donor (mEGFP) fluorescence lifetime [2]	mean donor (mEGFP) fluorescence lifetime [3]	fraction of WASp interacting with Cdc42 [4]	Substance
10%	2.45 ns	2.44 ns		mEGFP::Cdc42 (cell division control protein 42 homolog labelled with mEGFP) (from UniProt P40793 1-191) (natural protein)
			30%	mCherry-labelled Cdc42 (reciprocal tagging) (from UniProt P40793 1-191) (natural protein)
